Results as given in patent US20100291638.

Tests used:
Conditions in all cases: dNTP incorporation; background <500
[1] = tested on: T1, DNA polymerase clone 1128 (uncultured hot spring virus (Great Boiling Spring))
T1 sequence: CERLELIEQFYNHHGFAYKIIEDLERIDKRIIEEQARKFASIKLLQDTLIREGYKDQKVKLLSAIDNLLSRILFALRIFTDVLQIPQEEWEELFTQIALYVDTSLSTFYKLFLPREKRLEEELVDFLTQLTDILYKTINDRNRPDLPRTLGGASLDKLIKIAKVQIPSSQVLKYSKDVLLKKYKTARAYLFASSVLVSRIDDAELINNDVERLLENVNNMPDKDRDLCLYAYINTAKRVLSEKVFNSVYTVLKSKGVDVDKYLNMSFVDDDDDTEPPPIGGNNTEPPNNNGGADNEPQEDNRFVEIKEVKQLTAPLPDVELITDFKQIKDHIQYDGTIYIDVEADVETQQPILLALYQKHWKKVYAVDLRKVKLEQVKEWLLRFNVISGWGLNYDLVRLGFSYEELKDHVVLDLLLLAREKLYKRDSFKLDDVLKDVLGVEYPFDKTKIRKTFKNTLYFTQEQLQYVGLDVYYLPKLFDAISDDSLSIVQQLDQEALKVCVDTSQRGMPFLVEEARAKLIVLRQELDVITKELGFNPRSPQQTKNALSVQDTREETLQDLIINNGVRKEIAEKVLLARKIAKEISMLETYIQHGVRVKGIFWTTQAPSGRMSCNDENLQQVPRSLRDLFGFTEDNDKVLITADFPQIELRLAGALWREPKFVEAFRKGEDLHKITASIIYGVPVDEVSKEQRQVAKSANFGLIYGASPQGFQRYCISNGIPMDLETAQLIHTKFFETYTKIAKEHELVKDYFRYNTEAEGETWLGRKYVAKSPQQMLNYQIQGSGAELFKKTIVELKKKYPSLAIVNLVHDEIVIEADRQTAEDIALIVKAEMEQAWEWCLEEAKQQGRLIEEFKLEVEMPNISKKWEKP

[2] = tested on: T2, DNA polymerase clone 1753 (uncultured hot spring virus (Great Boiling Spring))
T2 sequence: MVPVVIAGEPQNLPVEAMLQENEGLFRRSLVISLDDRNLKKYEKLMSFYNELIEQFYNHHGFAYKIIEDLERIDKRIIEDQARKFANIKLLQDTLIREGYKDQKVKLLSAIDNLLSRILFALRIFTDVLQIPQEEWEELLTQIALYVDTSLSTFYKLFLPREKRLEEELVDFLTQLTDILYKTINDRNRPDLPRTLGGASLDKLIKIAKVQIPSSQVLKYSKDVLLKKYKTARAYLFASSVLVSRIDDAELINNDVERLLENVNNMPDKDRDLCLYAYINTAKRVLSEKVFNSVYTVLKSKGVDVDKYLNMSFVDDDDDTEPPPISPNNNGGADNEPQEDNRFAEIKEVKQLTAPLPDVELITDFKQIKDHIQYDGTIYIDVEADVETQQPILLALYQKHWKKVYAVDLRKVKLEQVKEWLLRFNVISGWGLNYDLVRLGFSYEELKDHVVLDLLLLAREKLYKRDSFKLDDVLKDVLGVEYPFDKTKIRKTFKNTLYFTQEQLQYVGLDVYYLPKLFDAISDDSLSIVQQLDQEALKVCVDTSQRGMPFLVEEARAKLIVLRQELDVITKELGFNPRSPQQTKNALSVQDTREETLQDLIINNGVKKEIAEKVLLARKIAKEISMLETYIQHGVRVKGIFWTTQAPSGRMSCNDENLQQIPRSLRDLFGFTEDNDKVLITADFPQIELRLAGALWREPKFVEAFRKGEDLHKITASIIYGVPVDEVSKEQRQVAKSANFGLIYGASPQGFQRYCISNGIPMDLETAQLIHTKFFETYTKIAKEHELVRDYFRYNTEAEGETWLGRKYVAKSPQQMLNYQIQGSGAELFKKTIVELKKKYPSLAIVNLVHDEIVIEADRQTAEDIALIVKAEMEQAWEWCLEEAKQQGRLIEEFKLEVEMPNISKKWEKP

[3] = tested on: T3, DNA polymerase clone 2783GBS (uncultured hot spring virus (Great Boiling Spring))
T3 sequence: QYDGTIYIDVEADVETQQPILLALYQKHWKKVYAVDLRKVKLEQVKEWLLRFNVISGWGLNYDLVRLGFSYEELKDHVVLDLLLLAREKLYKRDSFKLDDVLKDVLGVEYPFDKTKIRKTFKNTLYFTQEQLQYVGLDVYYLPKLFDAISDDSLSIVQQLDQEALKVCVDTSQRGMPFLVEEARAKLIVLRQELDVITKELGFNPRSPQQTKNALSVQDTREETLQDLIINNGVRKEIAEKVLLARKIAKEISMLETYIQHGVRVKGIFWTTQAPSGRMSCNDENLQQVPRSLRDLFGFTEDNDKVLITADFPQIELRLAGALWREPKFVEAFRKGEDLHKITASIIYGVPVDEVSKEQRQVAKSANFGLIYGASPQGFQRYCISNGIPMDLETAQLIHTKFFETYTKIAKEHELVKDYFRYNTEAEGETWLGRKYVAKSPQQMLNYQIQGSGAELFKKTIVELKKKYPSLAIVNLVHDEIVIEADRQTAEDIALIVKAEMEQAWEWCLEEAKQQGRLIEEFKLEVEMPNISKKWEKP

Substance: activated calf thymus DNA
- activity [1]: 16400 cpm
- activity [2]: 141000 cpm
- activity [3]: 11500 cpm
